# Assay: yeast display, Sf9 membrane polyspecificity reagent, FACS + sequencing; frameworks hold sequencing errors
# Outline: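 Using colony PCR, genes from sorted yeast display clones were amplified, then sequenced on MiSeq at 2 × 250 and filtered by CDR length. The clones had been stained with 10% biotinylated, detergent-solubilized Sf9 membrane reagent for 1 hour at 4 °C and sorted by FACS into low and high (top ~1%) gates on anti-HA and streptavidin fluorescence. Polyreactivity labels come from the gate of origin.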
row,Sequence,polyreactivity (PSR sort gate)
1,QVQLVESGGGLVQAVGSLLLSCAASGSIFRVYAMGWSRQAPGKERELVAAISVSGSSTYYADSVKGRFTISRDNAKNTVYFQMNCLIPEDTAVYYCATKQRRGYWGYITAYARYYWGQGTQVTVSS,high polyreactivity
2,QVQLVESGGGLVQAVGSLRLICDASGRIFYGYAMGWYRQAPGTERELVAANTYIGGTYYADSVKGRFTISRDNAKNTVDFLMNSVKPEDTSVYYWATEPFYNYGYFTYPYWYDYWGQGSQVTVSS,low polyreactivity
3,QVQLVESGGGLVQAVGSLRLSCAASGFIFSYYAMGWYRQAPGKERELVAAISRSGSITYYADSVKGRFTISRDNAKNTVYLQMNRLKPEDTAVYYCAARYWRRGSSGRLNYWGQGTQVTVSS,high polyreactivity
4,QVQLVESGGGLVQAVGSLRLSCAASGFIFYRNVMGWYREAPGKERELVAAISGSGGRTYYADSVKGRFTISRDNAKNTVYLQLNSLKPEDTAVYDCAADASLEGDYWGQGTQVTVSS,high polyreactivity
5,QVQLVESGGGLVQAVGSLRLSCAASGFILTRYAMGWYRQAPGKERELVAGIRLRGGSTYYADSVKGRFTISRDNAKNTVYLQMNSLKPEDTAVYYCAARYYYQYDYWGQGTQVTVSS,high polyreactivity
6,QVQLVESGGGLVQAVGSLRLSCAASGITFKWYAMGSYRHAPGKERELVAAISWSTGSTYYADSVKGRFTISRDNAKNTVYLQMNSLKPEDTAVYYCAARVKRPQTGYDRRYGYWGQGTQVTVSS,high polyreactivity
7,QVQLVESGGGLVQAVGSLRLSCAASGITFNLYAMGWYRQAPGKEREFVAGITASGSSTYDADSVKGRFTISRDNAKNTVYLQMNSLKPEDTAVYYCAARWHIYYFSYVTSYAYGYWGQGTQVTVSS,high polyreactivity
8,QVQLVESGGGLVQAVGSLRLSCAASGLIFDANAMGWYRQAPGKERELVAAISNGDSTYYADSVKGRLTISRDNAKNTVYLQMNSLKPEDTAVYYCNARIIYRKWLFRSGTFNYWGQGTQVTVSS,low polyreactivity
9,QVQLVESGGGLVQAVGSLRLSCAASGSIFDVNAMGWYRQAPGKERELVAAISQRGTRTYYADSVKGRFTISRDNAKNTVYLQMNSLKPEDTAVYYCNRGGWRQYDSWGQGTQVTVSS,high polyreactivity
10,QVQLVESGGGLVQAVGSLRLSCAASGSISVYYAMGWYRQAPGKEMELVAAISRSGGRTYYADSVKGRFTISRDNAKNTVYLQMNSLKPEDTAVYYCAAGYSSLRRFGVYYWGQGTQVTVSS,high polyreactivity
11,QVQLVESGGGLVQAVGSLRLSCAASGSTFDHYAMGWYRQAPGKERELVAAISYSGSTTDYADSVKGRFTISRDNAMNTVYLQMISLKPEDTAVYYCAASGDVIQSPMDYWGQGTQVTVSS,low polyreactivity
12,QVQLVESGGGLVQAVGSLRLSCAASGSTFFWYAMGWYRQAPGKERELVAAISKTGGSTYYADSVKGRFTISRDNAKNTVYLQMNSLKPEDTAVYYCAKPLSSFSRTSSVWPWYDYWGQGTQVTVSS,low polyreactivity
13,QVQLVESGGGLVQAVGSLRLSCAASGSTLSFNAMGWYRQAPGKERELVAGITYSGGSTYYADSVKGRFTISRDNAKNTVYLQMNSLKPEDTAVYYCNKASGVYYGHLDYWGQGTQVTVSS,low polyreactivity
14,QVQLVESGGGLVQAVGSLRLSCAASGYFFSSNAMGWYSQSPGKERELVAAITASGGGTYYADSVKGRFTISRDNAQNTVYIQMKSLKPEDTAVYYCAADFNDHYYWYGQDFDYWGQGTQVTVSS,low polyreactivity
15,QVQLVESGGGLVQAVGSLRLSCAAYGSTFYVNAMGWYRQAPGKEREFVAAITWNSGSTYYADSVKGRFTISRDNAKNTVYLQMNSLKPEDTAVYYCAAVLYVRVYGYDYWGQGTQVTVSS,low polyreactivity
16,QVQLVESGGGLVQAVGSLRLSCASSGNTFGPNAMGWYRQAPGKERELVAAIRWRGGSTYYADSVKGRFTISRDYAKNTVYLQMNSLKPVDNAVYYCAAGIHSPTYRTGTTYVDYDYWGQGTQVTVSS,high polyreactivity
17,QVQLVESGGGLVQAVGSLRLSCDASGSTFYPYAIGWYRQAPAKESELVARITRGVGSTYYADSVKGRFTISRDNAKNTVYLQMNSLIPEDTAVYYCNRVEYFTVWGYDYWGQGTQVTVSS,low polyreactivity
18,QVQLVESGGGLVQAVGSLRLSSAASRSTFGLNAMGWYRQAPGKESELVAAITFSGGSTYYADSVKGRFTISRDNANNTVYLQKNSLKPEDTAVYYCAARFSLEGGYYWGQGTQVTVSS,low polyreactivity
19,QVQLVESGGGLVQAVRSRRLSSAASGSIFYFYPMGWYRQAPGKDREFVAAISSGGSTYYSDSVKGRFTNSRDNAKYTVYLQMNSLKPEDTAVYYCAAVSLYYRYDFWGQGTQVTVSS,low polyreactivity
20,QVQLVESGGGLVQDGGSLPLSCAASGHIFIYYTMGWYRQAPGKERELVAGITIGGSTNYADSVKGRFTISRDNAQNTVYLQMNSLKPEDTAVYYCSTTWYLVASWYVAIFDYWGQGTQVTVSS,low polyreactivity
21,QVQLVESGGGLVQEGASLRLSCAASGFIFLQYAMGWYRQAPGKERELVAAITSGGGTNYADSVKGRFTISRDNAKNTVYLQMNSLKPEDTAVYYCAARTWPWVLGATQDDYWGQGTQVTVSS,low polyreactivity
22,QVQLVESGGGLVQEGGSLRISCASSGFIFASYAMAWYIQAPGKERELVAAITQSGGITYYADSVKERFTISRDNAKYTVYLQMNSLKPEDTAVFYCNTPLLKRTTRCRERNYWGQGTQVTVSS,low polyreactivity

row,Sequence,polyreactivity (PSR sort gate)
1,QVQLVESGGGLVQEGGSLRLICAASGFIFRYYAMGWYRQAPGKERELVAAISRSGGSTSYADSVKGRFTISRDNAKITGDFQMNSLKPEDSAVYYCAKYVAFHYKQYDFNWGQGTQVYVSS,high polyreactivity
2,QVQLVESGGGLVQEGGSLRLICAASGRTFYPNAMGWYRQAPGKERELVADITYSGASTYYADSVKGRFTISRDYAKNTVYLQMNSLKPEDTAVYYCNADDSCVLVYVPYDYWGQGTQVTVSS,low polyreactivity
3,QVQLVESGGGLVQEGGSLRLICAASGSIFEVNAMGWYRQAPGKERELAATITYSGGSTYYADSVKGRFTISRDNAKNTVYFQMNSLKPEDTAVYYCATDYVDWELYIYDYWGQGTQVTVSS,low polyreactivity
4,QVQLVESGGGLVQEGGSLRLICSASGSTFRANAMGWYRQAPGKERELVAAITSSGGSTYYADSVKGRFTISRDNAKNTVYLQMNSLKPEDTAVYYCAKENAPSRLTYGYWGQGTQVTVSS,low polyreactivity
5,QVQLVESGGGLVQEGGSLRLSCAASASTLYKYAMGWYRQAPGKERELVAAISWSGSSTYYADSVKGRFTISRDNAKNTVYLQMNSLKPEDTAVYYCNARWQEPLKYDYWGQGTQVTVSS,low polyreactivity
6,QVQLVESGGGLVQEGGSLRLSCAASGFIFGWYAMGWYRQAPGKERELVATISSSGGSTYYADSVKGRFTISRDNAKNTVYLQMNSLKPEDTAVYYCAARPRRYYSAQDMDYWGQGTQVTVSS,high polyreactivity
7,QVQLVESGGGLVQEGGSLRLSCAASGFIFGWYGMGWYRQPPGKDSELFAAITWSGVRTYYADSVKGRFTISRDNAKNTVYLQMISLKPEDTAVYYCARAGGYVGRGYKDQDGRGDYWGQGTQVTVSS,high polyreactivity
8,QVQLVESGGGLVQEGGSLRLSCAASGFTFRYYAMGWYRQAPGKERELVAAIRWNGGSTYYADSVKGRFTISRDNAKNTVYLQMNRLKPEDTAVYYCNAAYSYGRYEYVYWGQGTQVTVSS,high polyreactivity
9,QVQLVESGGGLVQEGGSLRLSCAASGFTFVGYAMGWYRQAPGKERELLASIPWGGDRTYYADTVKGRFTISRDNAKNTDYLQMNSLKPEDTAVYYCNAQYEIWRVTFSPYDRWGYDYWGQGTQVTVSS,low polyreactivity
10,QVQLVESGGGLVQEGGSLRLSCAASGIIFSIYAMGWYRQAPGKERELVAVISRSSGSTYYADSVKGRFTISRDNAKNTVYLQMNSLIPEDTSVYFCAARKNRAYGYWGQGTEVTVSS,high polyreactivity
11,QVQLVESGGGLVQEGGSLRLSCAASGITFGRYAMGWYRQAPGKERELVAAISWSGGSTYYADSVKGRFTISRDNAKITVYLQMNSLKPEDTAVYSCNARGFPGKFGYWGQGTQVTVSS,high polyreactivity
12,QVQLVESGGGLVQEGGSLRLSCAASGITFKTYAMGWYRQAPGKESELVATINRGSRTNYADPVKGRFTISRDNAKNTVYLQMNSLKPEDTAVYYCAAHYTTFIPSPDGDYLGQGTQVTVSS,low polyreactivity
13,QVQLVESGGGLVQEGGSLRLSCAASGLIFGENAMGWYRQAPGKERELVAAISRRAGITYYADSVKGRFTISRDNAKNTVYLQMNSLKPVDTAVYYCAARKGAISSPYDYWGQGTQVTVSS,high polyreactivity
14,QVQLVESGGGLVQEGGSLRLSCAASGLTFAGYAMGWYRQATGKERELVAAITTGGSTYYADSVNGRFTISRDNAKNTVYLQMNSLKPEDTAVYYCAARRVRKALVGYGYWGQGTQVTVSS,high polyreactivity
15,QVQLVESGGGLVQEGGSLRLSCAASGLTFFPYAMGWYRQAPGKERELVAAITTSDGTTYYADSVKGRFTISRDNAKNTVYLQMNSLKPEDTAVYYCAAVYSPRSVWWYDYWGQGTEVTVSS,low polyreactivity
16,QVQLVESGGGLVQEGGSLRLSCAASGLTFSPYAMGWYRQAPGKERELVATITIGGSTKYADSVKGRFTISRDNAKNTVYLQMNSLKPEDTAVYYCAVRSGYVTRRYDYWGQGTQVTVSS,low polyreactivity
17,QVQLVESGGGLVQEGGSLRLSCAASGRIFDVYVMGWYRQAPGKERELVDAISQSGGRTYYADSVKGRFTISRDNAKNTVYLQMNSLKPEDTAVYYCNTVTSLATNFSGFGYWGQGTQVTVSS,high polyreactivity
18,QVQLVESGGGLVQEGGSLRLSCAASGRIFGTNAMGWYRQAPGKERELVAAISRSGGSTYYADSVKGRFTISRDNAKNTVYLQMNSLKPEDTAVYYCATDGRHTYYYWGQGTQVTVSS,high polyreactivity
19,QVQLVESGGGLVQEGGSLRLSCAASGRIFKPYVMGWYRQAPGKERELVAAISWSGGASTYYADSVKGRFTISRENAKNTVYLQMNSLKPEDTAVYYCNAAKRNRYDYWGQGTQVTVSS,low polyreactivity
20,QVQLVESGGGLVQEGGSLRLSCAASGRIFPKYAMGWYRQAPAKERELVAAISQRGGSTYYADSVKGRFTISRDNAKNTVYLQMNSLKPEDTAVYYCAASYYRQSCEYDYWGQGTQVTVSS,low polyreactivity
21,QVQLVESGGGLVQEGGSLRLSCAASGRISVRYGMGWYRQAPGKERELVATISQSGGSTYYADSVKGRFTISRDNAKNTVYLQMNSLKPEDTAVYYCAAETDYVRHARKYDFWGQGTQVTVAS,low polyreactivity
